{"source": "paper PMC6050537", "about": "“Inhibition of low-density lipoprotein receptor degradation with a cyclic peptide that disrupts the homodimerization of IDOL E3 ubiquitin ligase” (Chemical Science, 2018)", "binders": {"B1": {"name": "cyclo-CFFLYT (peptide)", "peptide": "CFFLYT", "modifications": "cyclic backbone (cyclo-)"}, "B2": {"name": "cyclo-CTIFLL (peptide)", "peptide": "CTIFLL", "modifications": "cyclic backbone (cyclo-)"}, "B3": {"name": "RINGPep1 derivative with 4-cyano-phenylalanine at position 3 (peptide)", "chain": "cyclo(CF[Phe(4-CN)]LYT)", "modifications": "not fully specified"}, "B4": {"name": "RINGPep1 derivative with 4-methy-phenylalanine at position 3 (peptide)", "chain": "cyclo(CF[Phe(4-Me)]LYT)", "modifications": "not fully specified"}, "B5": {"name": "RINGPep1 derivative with 4-nitro-phenylalanine at position 3 (peptide)", "chain": "cyclo(CF[Phe(4-NO2)]LYT)", "modifications": "not fully specified"}, "B6": {"name": "RINGPep1 derivative with 4-fluoro-phenylalanine at position 3 (peptide)", "chain": "cyclo(CF[Phe(4-F)]LYT)", "modifications": "not fully specified"}, "B7": {"name": "RINGPep1 derivative with 4-chloro-phenylalanine at position 3 (peptide)", "chain": "cyclo(CF[Phe(4-Cl)]LYT)", "modifications": "not fully specified"}, "B8": {"name": "RINGPep1 derivative with homo-phenylalanine at position 3 (peptide)", "chain": "cyclo(CF[hPhe]LYT)", "modifications": "not fully specified"}}, "note": "Non-standard residues stand in square brackets, D forms with d. Phe(4-NO2) = N[C@@H](Cc1ccc([N+](=O)[O-])cc1)C(=O)O; Phe(4-CN) = N#Cc1ccc(C[C@H](N)C(=O)O)cc1; Phe(4-Cl) = N[C@@H](Cc1ccc(Cl)cc1)C(=O)O; Phe(4-F) = N[C@@H](Cc1ccc(F)cc1)C(=O)O; Phe(4-Me) = Cc1ccc(C[C@H](N)C(=O)O)cc1; hPhe = N[C@@H](CCc1ccccc1)C(=O)O", "data": [{"molecular_target": "Full length IDOL (1–445) (UniProt Q8WY64)", "test": "SPR; Biacore S200; 6× His-tagged full-length IDOL immobilized on an NTA chip (~6000 RU), peptides as analytes; 10 mM HEPES, 300 mM NaCl, 1 mM TCEP, 0.05% Tween 20, 4% DMSO, pH 8.0; saturation at the highest concentrations not observed", "conditions": "not given", "units": {"Kd": "µM"}, "values": [{"binder": "B1", "Kd": 38.5}, {"binder": "B2", "Kd": 20.9}]}, {"molecular_target": "T1, Full length IDOL (1–445), Q8WY64", "T1 chain": "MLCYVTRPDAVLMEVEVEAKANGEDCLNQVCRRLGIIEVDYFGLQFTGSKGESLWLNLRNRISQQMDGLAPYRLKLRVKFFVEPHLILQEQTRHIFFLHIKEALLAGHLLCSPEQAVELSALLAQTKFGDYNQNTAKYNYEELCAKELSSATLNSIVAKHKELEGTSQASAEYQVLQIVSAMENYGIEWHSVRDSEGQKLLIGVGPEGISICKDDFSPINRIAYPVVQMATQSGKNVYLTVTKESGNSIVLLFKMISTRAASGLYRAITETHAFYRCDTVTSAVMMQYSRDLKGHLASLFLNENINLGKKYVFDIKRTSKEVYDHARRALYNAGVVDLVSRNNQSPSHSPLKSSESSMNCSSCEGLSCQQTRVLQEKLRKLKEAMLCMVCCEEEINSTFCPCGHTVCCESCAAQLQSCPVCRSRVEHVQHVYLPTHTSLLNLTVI", "test": "MST", "conditions": "modification not given; NT-647-NHS dye (only the labelled copy in the MST assays)", "units": {"Kd": "µM"}, "values": [{"binder": "B3", "Kd": 36.2}, {"binder": "B4", "Kd": 23.1}, {"binder": "B5", "Kd": 35.7}, {"binder": "B6", "Kd": 35.2}, {"binder": "B7", "Kd": 12}, {"binder": "B8", "Kd": 23.6}]}, {"molecular_target": "Full length IDOL (1–445) (UniProt Q8WY64)", "test": "MST; Monolith NT.115; 6× His IDOL labelled with NT-647-NHS dye at 50 nM, peptides titrated; 10 mM HEPES, 300 mM NaCl, 1 mM TCEP, 0.05% TWEEN-20, pH 8.0, 5% DMSO", "conditions": "not given", "units": {"Kd": "µM"}, "values": [{"binder": "B1", "Kd": 38.5}]}]}
